# Assay results from article PMC10643120 (Nature structural & molecular biology, 2023).
# B1: ΦPA3 gp2 (ChmB), purified (natural protein, Pseudomonas phage ΦPA3, UniProt F8SJN3 1-197, looked up)
# chain: MTDVAYPYLETSTLFDNIVKGQILEPDAESPQLSHVLKITDAAGIGHEVTFFQLSILLAILQGNKHELTDNQPHQYLVNQWVLTDLHNIYDEGYVMTSHRVIVDHVEEVATFTGTLVHQKTIRSHPNWQEGFTAPVKEFEFNLENFGIFHQIVFSQCIANLTPELDWVARTFGHSYIFEMEGRNVRVASIQEEGTTE
# B2: gp2 homolog of phage Psa21 (gp3), purified (natural protein, Pseudomonas phage Psa21, UniProt A0A481W4E6 1-229, looked up)
# chain: MNPVYDIFNDIANNMVTVENKEEFLSNTVRLVGASGKEHVLSIAQAQLLLGVLDGSHQFLTDYNPLEFLLFSYQFQDKIKLKYVAVQYQIIYDADDDSIFVSGVTRHPMTVVGHPDYVAGASVPIETFQTTIPNVGLYGGLALVNCIATQSPDFAPVKGSFGGSFIFEFDGGKQSIRRYVPAEIDEPVIHKEELQEALDEAVKKFVPSAAPKVEFNGIKDTSTKTEQEI
# B3: 201Φ2-1 gp2 (ChmB), purified (natural protein, Pseudomonas phage 201Φ2-1, UniProt B3FJX8 1-179, looked up)
# chain: MTLIAKPAVPDTEVLNHIGRDLLLKDEDGSFKLQRHLKILTEEGLVHQVSFAQVDGLLNILDSTRETPPCSPLQYLITHYDLKDLVELGKDGWLVPEYQVVVMHSSKTVRFEGKLTRVGSIDKEFTFALGGFDFIQQLSLARCIASLGKEFEQVIGTFDCTYVFKTGPDGISVSTDIGV
# Molecular target: the molecule itself
# Assay: SEC-MALS; 100 μL of purified protein at 5 mg/mL on Superdex 200 Increase 10/300 GL in buffer GF (300 mM NaCl, 1 mM DTT)
row,Protein,stoichiometry N
1,B1,2
2,B2,2
3,B3,2
